The values below come from patent US20230235058A1 (OXFORD UNIVERSITY INNOVATION, published 2023).

Assay [1] concerns the target T1, human FcγR1A (human, UniProt P12314 16-288, biotinylated).
T1 construct: bought; also called CD64A
Put plainly: SPR 37C, kinetic.
Method: (§1) For the high affinity FcR interactions (FcγR1A, and also FcRn assessed at pH6.0) the binding was assessed in a kinetic analysis with antibody as analyte. […] Reference flow cell 1 was left empty in all channels. Purified antibody was then injected at a single concentration and on/off rates calculated by curve fitting on BiaEvaluation software.

Another assay concerns the target T2, human FcRn (human, UniProt P55899 24-297; P61769 21-119, limits assumed, biotinylated).
T2 construct: bought; also called FcRn pH6
The experiment in a line: SPR, pH6.0.

In assay [2] the target is T3, human FcγR3A 158F (human, UniProt P08637 17-208).
T3 construct: extracellular domain
T3 sequence (P08637 17-208): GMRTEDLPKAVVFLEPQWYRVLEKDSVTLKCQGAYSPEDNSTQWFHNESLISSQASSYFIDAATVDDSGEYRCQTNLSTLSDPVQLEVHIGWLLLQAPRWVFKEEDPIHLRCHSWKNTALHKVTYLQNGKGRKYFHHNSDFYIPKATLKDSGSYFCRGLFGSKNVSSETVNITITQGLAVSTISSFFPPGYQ
The experiment in a line: SPR 37C, steady state.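 Note: fc variants captured on chip-bound human BTLA ectodomain, recombinant FcγR ectodomains injected as analyte at varied concentrations, double-referenced equilibrium binding fitted to Langmuir model.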
Method: (§2) For the low affinity FcγRs (FcγR2A, FcγR2B, FcγR3A and FcγR3B) the interactions were assessed by surface plasmon resonance with the recombinantly expressed FcRs (extracellular domains only) as analyte. Briefly, recombinant human BTLA extracellular domain (BTLA^K31-R151) was covalently immobilised to both flow cells of all channels of a CMS Series S sensor chip using the GE Healthcare Amine coupling kit. The 2.8.6 Fc variant to be assessed was then captured (approx. 500-1000 response units) in flow cell 2 of each channel. Steady state affinity analysis was then performed by injecting varying concentrations of FcR in multiple cycles and measuring equilibrium binding. Double referencing was used (subtracting the signal in the reference Fc1 and also subtracting the signal from a blank zero concentration injection). KDs were calculated from the Langmuir curves (plotting equilibrium binding against analyte concentration to determine the concentration required for half maximal binding).

Assay [3] concerns the target T4, human FcγR2A 131H (human, UniProt P12318 34-217).
T4 construct: extracellular domain
T4 sequence (looked up): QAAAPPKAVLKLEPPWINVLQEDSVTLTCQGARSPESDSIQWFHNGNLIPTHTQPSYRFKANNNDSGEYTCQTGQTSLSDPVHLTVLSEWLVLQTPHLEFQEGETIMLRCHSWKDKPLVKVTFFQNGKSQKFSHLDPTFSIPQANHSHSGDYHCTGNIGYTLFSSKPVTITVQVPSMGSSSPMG
Put plainly: SPR 37C, steady state.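 Note: fc variants captured on chip-bound human BTLA ectodomain, recombinant FcγR ectodomains injected as analyte at varied concentrations, double-referenced equilibrium binding fitted to Langmuir model.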
Method: as §2

Assay [4] concerns the target T5, human FcγR3A 158V (human, UniProt P08637 17-208).
T5 construct: extracellular domain
The experiment in a line: SPR 37C, steady state.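 Note: fc variants captured on chip-bound human BTLA ectodomain, recombinant FcγR ectodomains injected as analyte at varied concentrations, double-referenced equilibrium binding fitted to Langmuir model.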
Method: as §2

Assay [5] concerns the target T6, human FcγR2A 131R (human, UniProt P12318 34-217).
T6 construct: extracellular domain
T6 sequence (looked up): T4 sequence (looked up) with H134R
Put plainly: SPR 37C, steady state.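 Note: fc variants captured on chip-bound human BTLA ectodomain, recombinant FcγR ectodomains injected as analyte at varied concentrations, double-referenced equilibrium binding fitted to Langmuir model.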
Method: as §2

The target of assay [6] is T7, human FcγR3B (human, UniProt O75015 17-200, limits assumed).
T7 construct: extracellular domain; also called CD16B
T7 sequence (O75015 17-200 limits assumed): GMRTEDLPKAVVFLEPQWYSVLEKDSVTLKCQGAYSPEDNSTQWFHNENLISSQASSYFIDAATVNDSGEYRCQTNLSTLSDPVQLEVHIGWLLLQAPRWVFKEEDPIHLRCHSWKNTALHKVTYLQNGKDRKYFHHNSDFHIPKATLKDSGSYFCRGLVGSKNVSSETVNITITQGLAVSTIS
Put plainly: SPR 37C, steady state.
Method: as §2

For assay [7], the target named is T8, human FcγR2B (human, UniProt P31994 43-217).
T8 construct: extracellular domain; also called hFcγR2B; CD32B
T8 sequence (looked up): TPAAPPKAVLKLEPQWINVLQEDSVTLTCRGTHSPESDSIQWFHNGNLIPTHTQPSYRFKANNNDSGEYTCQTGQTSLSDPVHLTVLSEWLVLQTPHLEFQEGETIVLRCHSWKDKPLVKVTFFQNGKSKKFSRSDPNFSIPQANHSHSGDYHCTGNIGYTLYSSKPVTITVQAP
The experiment in a line: SPR 37C, steady state; hIgG1 D265A G236D A330R Fc variant.
Method: (§3) For the low affinity FcγRs (FcγR2A, FcγR2B, FcγR3A and FcγR3B) the interactions were assessed by surface plasmon resonance with the recombinantly expressed FcRs (extracellular domains only) as analyte. […] The 2.8.6 Fc variant to be assessed was then captured (approx. 500-1000 response units) in flow cell 2 of each channel. Steady state affinity analysis was then performed by injecting varying concentrations of FcR in multiple cycles and measuring equilibrium binding. Double referencing was used (subtracting the signal in the reference Fc1 and also subtracting the signal from a blank zero concentration injection). KDs were calculated from the Langmuir curves (plotting equilibrium binding against analyte concentration to determine the concentration required for half maximal binding).

In assay [8] the target is T1, human FcγR1A. The experiment in a line: SPR 37C, kinetic; hIgG1 K322A Fc variant.
Method: as §1
The target in assay [9] is T3, human FcγR3A 158F. Put plainly: SPR 37C, steady state; hIgG1 K322A Fc variant.
Method: as §2
For assay [10], the target named is T4, human FcγR2A 131H. Put plainly: SPR 37C, steady state; hIgG1 K322A Fc variant.
Method: as §2
Assay [11] addresses T5, human FcγR3A 158V. The experiment in a line: SPR 37C, steady state; hIgG1 K322A Fc variant.
Method: as §2
The target in assay [12] is T8, human FcγR2B. Put plainly: SPR 37C, steady state; hIgG1 K322A Fc variant.
Method: as §2
Assay [13] deals with T7, human FcγR3B. The experiment in a line: SPR 37C, steady state; hIgG1 K322A Fc variant.
Method: as §2
For assay [14], the target named is T5, human FcγR3A 158V. The experiment in a line: SPR 37C, steady state; hIgG1 D265A G236D S267E Fc variant.
Method: as §3
Assay [15] concerns the target T8, human FcγR2B. Put plainly: SPR 37C, steady state.
Method: as §2
In assay [16] the target is T4, human FcγR2A 131H. The experiment in a line: SPR 37C, steady state; hIgG1 D265A P238D Fc variant.
Method: as §2
In assay [17] the target is T6, human FcγR2A 131R. Described as above.
Method: as §2
Assay [18] addresses T8, human FcγR2B. The assay is described as above.
Method: as §2
Assay [19] addresses T1, human FcγR1A. The experiment in a line: SPR 37C, kinetic; hIgG1 N297A Fc variant.
Method: (§4) For the high affinity FcR interactions (FcγR1A, and also FcRn assessed at pH6.0) the binding was assessed in a kinetic analysis with antibody as analyte. […] Reference flow cell 1 was left empty in all channels. Purified antibody was then injected at a single concentration and on/off rates calculated by curve fitting on BiaEvaluation software. […] IgG Fc has two binding sites for FcRn so this assessment performed with FcRn immobilised at high density provides an avidity estimate for the interaction rather than a true KD.
Assay [20] deals with T4, human FcγR2A 131H. The experiment in a line: SPR 37C, steady state; hIgG1 N297A Fc variant.
Method: as §2
Assay [21] has as its target T6, human FcγR2A 131R. The experiment in a line: SPR 37C, steady state; hIgG1 N297A Fc variant.
Method: as §2
Assay [22] has as its target T8, human FcγR2B. Put plainly: SPR 37C, steady state; hIgG1 N297A Fc variant.
Method: as §2

Changes are numbered by the printed parent chain. Numbers in names are those of the source.

T1 sequence (P12314 16-288): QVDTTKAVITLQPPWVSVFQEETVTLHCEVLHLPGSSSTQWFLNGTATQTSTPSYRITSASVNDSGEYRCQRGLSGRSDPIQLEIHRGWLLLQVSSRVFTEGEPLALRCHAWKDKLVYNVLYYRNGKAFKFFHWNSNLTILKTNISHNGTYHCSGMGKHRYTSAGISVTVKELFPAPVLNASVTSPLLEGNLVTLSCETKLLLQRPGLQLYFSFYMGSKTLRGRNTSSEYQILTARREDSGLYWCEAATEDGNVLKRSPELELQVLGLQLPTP
T2 sequence (P55899 24-297 limits assumed, chain 1 of 2): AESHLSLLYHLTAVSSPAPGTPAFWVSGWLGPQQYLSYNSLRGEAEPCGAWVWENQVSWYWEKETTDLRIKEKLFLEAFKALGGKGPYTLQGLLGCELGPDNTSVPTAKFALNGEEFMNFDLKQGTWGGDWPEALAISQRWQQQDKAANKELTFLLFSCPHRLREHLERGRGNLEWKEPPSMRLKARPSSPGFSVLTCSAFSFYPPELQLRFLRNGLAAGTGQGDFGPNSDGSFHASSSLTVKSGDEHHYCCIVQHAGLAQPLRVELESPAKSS
T2 sequence (P61769 21-119 limits assumed, chain 2 of 2): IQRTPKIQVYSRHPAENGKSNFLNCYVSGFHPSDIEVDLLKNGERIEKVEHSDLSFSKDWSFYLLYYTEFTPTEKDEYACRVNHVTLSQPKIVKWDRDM
T5 sequence (P08637 17-208 F176V): as the sequence (P08637 17-208) above, with F160V counted along it
Method for human FcRn: as §4

B1: humanised 2.8.6 hIgG1 D265A G236D A330R (antibody)
heavy: QVTLKESGPALVKPTQTLTLTCTVSGFSLTTYGVHWIRQPPGKALEWLGVMWPGGRTSYNPSLKSRLTITKDNSKSQVVLTMTNMDPVDTATYYCVRGDYEYDYYAMDYWGQGTLVTVSSASTKGPSVFPLAPSSKSTSGGTAALGCLVKDYFPEPVTVSWNSGALTSGVHTFPAVLQSSGLYSLSSVVTVPSSSLGTQTYICNVNHKPSNTKVDKKVEPKSCDKTHTCPPCPAPELLDGPSVFLFPPKPKDTLMISRTPEVTCVVVAVSHEDPEVKFNWYVDGVEVHNAKTKPREEQYNSTYRVVSVLTVLHQDWLNGKEYKCKVSNKALPRPIEKTISKAKGQPREPQVYTLPPSREEMTKNQVSLTCLVKGFYPSDIAVEWESNGQPENNYKTTPPVLDSDGSFFLYSKLTVDKSRWQQGNVFSCSVMHEALHNHYTQKSLSLSPGK
light: EIVLTQSPATLSLSPGERATLSCRASSSVSYMHWYQQKPGQAPRPLIYATSNRATGIPARFSGSGSGTDYTLTISSLEPEDFAVYYCHQWSSNPYTFGQGTKLEIKRTVAAPSVFIFPPSDEQLKSGTASVVCLLNNFYPREAKVQWKVDNALQSGNSQESVTEQDSKDSTYSLSSTLTLSKADYEKHKVYACEVTHQGLSSPVTKSFNRGEC
notes: Fc variant with the variable domains of humanised 2.8.6; copies: 2 + 2
Usually Kd stands for the constant that tells how readily two partners part at equilibrium. Higher therefore signals a looser complex. For B1, the binding result in the assay with human FcγR1A [1], with human FcγR3A 158F [2], with human FcγR3A 158V [4] and with human FcγR3B [6] was “no binding” each time. Moreover, in the assay with human FcRn, the “avidity (FcRn pH6)” value was 14 nM. For the same molecule, the Kd with human FcγR2A 131H [3] amounted to 91.3 µM; in the assay with human FcγR2A 131R [5] it was 91.8 µM; with human FcγR2B [7] it was 398 µM.

B2: humanised 2.8.6 hIgG1 K322A (antibody)
heavy: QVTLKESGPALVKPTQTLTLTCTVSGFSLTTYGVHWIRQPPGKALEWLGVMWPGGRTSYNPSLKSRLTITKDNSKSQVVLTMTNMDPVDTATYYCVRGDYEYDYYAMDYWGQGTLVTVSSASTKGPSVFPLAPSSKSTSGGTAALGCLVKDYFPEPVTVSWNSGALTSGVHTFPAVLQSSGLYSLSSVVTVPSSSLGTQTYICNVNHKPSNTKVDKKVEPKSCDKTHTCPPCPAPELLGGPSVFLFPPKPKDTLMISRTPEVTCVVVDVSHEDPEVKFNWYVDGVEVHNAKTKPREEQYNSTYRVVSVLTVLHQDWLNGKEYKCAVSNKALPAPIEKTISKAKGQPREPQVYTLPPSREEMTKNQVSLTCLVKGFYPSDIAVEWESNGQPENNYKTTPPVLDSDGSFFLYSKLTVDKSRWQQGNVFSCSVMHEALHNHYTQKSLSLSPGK
light: B1 light
notes: as for B1
As for B2, the Kd in the assay with human FcγR1A [8] came out at 0.0052 µM; in the assay with human FcγR3A 158F [9], 5.75 µM; with human FcγR2A 131H [10] it was 4.6 µM; with human FcγR3A 158V [11], 2.18 µM; with human FcγR2B [12] it was 11 µM; with human FcγR3B [13], 11.9 µM.

B3: humanised 2.8.6 hIgG1 D265A G236D S267E (antibody)
heavy: B1 heavy with S270E, R333A
light: B1 light
notes: as for B1
Consider B3, for which the binding result with human FcγR1A [1], in the assay with human FcγR3A 158F [2], in the assay with human FcγR2A 131H [3] and with human FcγR3B [6] was “no binding” in each case. The equilibrium dissociation constant (Kd) with human FcγR3A 158V [14] stood at 1650 µM; with human FcγR2A 131R [5], 61.8 µM; in the assay with human FcγR2B [15] it was 113 µM. Moreover, in the assay with human FcRn, the “avidity (FcRn pH6)” value was found to be 18.7 nM.

B4: humanised 2.8.6 hIgG1 D265A P238D (antibody)
heavy: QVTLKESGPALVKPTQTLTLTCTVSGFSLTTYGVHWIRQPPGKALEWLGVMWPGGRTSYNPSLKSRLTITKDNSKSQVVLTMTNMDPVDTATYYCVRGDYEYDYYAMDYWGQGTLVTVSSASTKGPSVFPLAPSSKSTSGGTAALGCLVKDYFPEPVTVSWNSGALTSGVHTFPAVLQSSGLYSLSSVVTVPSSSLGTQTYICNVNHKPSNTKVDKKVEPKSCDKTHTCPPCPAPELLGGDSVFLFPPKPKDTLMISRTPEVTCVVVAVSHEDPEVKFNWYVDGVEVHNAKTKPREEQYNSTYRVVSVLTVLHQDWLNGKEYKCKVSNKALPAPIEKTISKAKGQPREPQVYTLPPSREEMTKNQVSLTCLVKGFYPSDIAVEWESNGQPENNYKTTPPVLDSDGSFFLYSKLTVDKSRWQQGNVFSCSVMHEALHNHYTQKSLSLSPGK
light: B1 light
notes: as for B1
As to B4, the dissociation constant (Kd) came to 4590 µM in the assay with human FcγR2A 131H [16], 348 µM with human FcγR2A 131R [17] and 684 µM with human FcγR2B [18]. Besides, the binding result with human FcγR3A 158F [2], with human FcγR3A 158V [4] and with human FcγR3B [6] was “no binding” each time.

B5: humanised 2.8.6 hIgG1 N297A (antibody)
heavy: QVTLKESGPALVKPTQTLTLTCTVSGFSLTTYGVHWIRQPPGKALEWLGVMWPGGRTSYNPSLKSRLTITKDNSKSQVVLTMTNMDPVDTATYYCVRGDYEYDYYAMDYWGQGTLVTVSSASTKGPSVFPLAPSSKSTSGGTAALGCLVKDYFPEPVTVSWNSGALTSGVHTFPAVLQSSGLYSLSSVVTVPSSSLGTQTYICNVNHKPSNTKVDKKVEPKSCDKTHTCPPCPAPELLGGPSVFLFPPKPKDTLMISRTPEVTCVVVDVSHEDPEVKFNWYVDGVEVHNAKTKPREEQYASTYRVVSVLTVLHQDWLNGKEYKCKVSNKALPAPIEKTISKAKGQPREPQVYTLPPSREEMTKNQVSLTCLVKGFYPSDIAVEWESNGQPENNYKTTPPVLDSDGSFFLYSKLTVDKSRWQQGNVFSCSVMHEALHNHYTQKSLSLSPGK
light: B1 light
notes: as for B1
Regarding B5, in the assay with human FcRn, the “avidity (FcRn pH6)” value turned out to be 9.41 nM. In addition, the Kd amounted to 8.7 µM with human FcγR1A [19], 2150 µM in the assay with human FcγR2A 131H [20], 447 µM in the assay with human FcγR2A 131R [21] and 1080 µM in the assay with human FcγR2B [22]. Also, the binding result in the assay with human FcγR3A 158F [2], with human FcγR3A 158V [4] and in the assay with human FcγR3B [6] was “no binding” throughout.
